± gives the uncertainty stated by the source.

The data set can be described thus: amyloid nucleation score (Sup35N fusion, yeast selection) (log enrichment); library NNK1; higher = more nucleation; inactive = no reads after selection. Summed up:
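Using DiMSum, nucleation scores were taken as the log enrichment of output over input reads, centred on the mode score of non-aggregating sequences. The input and output reads came from Illumina sequencing of plasmid inserts, with sequences under 100 input reads excluded. The yeast were psi-negative, expressed Sup35N fused to peptides of 20 random codons, were induced with 100 μM copper sulfate for 24 hours, and were grown 7 days at 30°C on medium lacking adenine and uracil.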
As for MIGTYRWMLIMGLETVRKGG, the amyloid nucleation score result was “inactive”.
MIHVFLGETYLVIFAVNFST: the amyloid nucleation score result is “inactive”.
As to MIMLIWVINSLTYGLEGLTA, the amyloid nucleation score was 0.919 ± 0.39.
Consider MIPDINIFQIIMVTHKLFRY, for which the amyloid nucleation score amounted to 3.71 ± 0.14.
As to MISDFSNVIMLVCIPCFLYV, the amyloid nucleation score amounted to 5.13 ± 0.067.
MKDYHSDHIKIVQANHTEKV: the amyloid nucleation score was -1.32 ± 2.4.
Regarding MKGARFARS, the amyloid nucleation score turned out to be 0.91 ± 0.8.
Substance MKIGIGVFRDREGNSGWL returned an amyloid nucleation score of -0.741 ± 1.4.
As for MKVRISEILEILKVSFKNFP, the amyloid nucleation score was -1.21 ± 1.4.
For the substance MKVYHSTQEVLWGQGGLLTR, the amyloid nucleation score was -0.116 ± 0.42.
MKYKSWTSGSGSSVSRRMKL returned an amyloid nucleation score of 0.028 ± 0.72.
For MKYPENSQWKDLYGFTVQVH, the amyloid nucleation score was found to be 0.102 ± 0.46.
As to MLEQAFESFPTWRTT, the amyloid nucleation score is -0.06 ± 0.5.
Regarding MLFLARRILSEYRFMPTWVG, the amyloid nucleation score result is “inactive”.
Regarding MLGSGAANTCHLTTRAWDHR, the amyloid nucleation score was 0.183 ± 0.39.
Substance MLHHLSYVAVRWCKRTRKLC showed an amyloid nucleation score of 0.405 ± 0.71.
Under MLIRWNSYTGHIGWIFSGKA stands 0.94 ± 0.19.
MLRSNVLYLIHRALCLWCVT returned an amyloid nucleation score of 2.42 ± 0.17.
With MLSII, the amyloid nucleation score is -1.39 ± 1.7.
MLWSL: the amyloid nucleation score was determined as 0.342 ± 0.59.
In the case of MMLGSGFLCLLMYDGVRFLL it was -0.839 ± 0.62; in that of MMRTEIARVLCLSLF, 0.077 ± 0.37; in that of MNFSYLWVYGNGL, -0.629 ± 0.63.
MNIVSTRS yielded an amyloid nucleation score of 0.231 ± 0.22.
As for MNLQYHILN, the amyloid nucleation score was -0.345 ± 1.7.
In turn, MPCFGVQKIYQLDETMPSET showed an amyloid nucleation score of 0.141 ± 0.45.
Under MPDYVVGYHGGWSCNLILRF stands 2.54 ± 0.19; under MPGNQYCSVSYLYQRSSGTV, 0.384 ± 0.45.
Substance MPLSILQLKTRFFKPSNDSR yielded an amyloid nucleation score of 5.42 ± 0.11.
For the substance MPLYLVCDFLNYGFVISVSS, the amyloid nucleation score came out at 4.42 ± 0.095.
As for MQINGRESDCMWNNMNARDW, the amyloid nucleation score was -0.108 ± 0.27.
In the case of MQLHNGWMLITYKKGTSIIW it was -2.3 ± 1.8; in that of MQLTFAVKLGENRE, 2.77 ± 0.079.
For MRCPRLASSDNDPCLLSRVS, the amyloid nucleation score was 0.357 ± 0.39.
MRDLALLAEVLVTD: the amyloid nucleation score stood at 0.295 ± 0.4.
In the case of MRENIWPITCSNL it was 2.28 ± 0.57; in that of MRFMPVVWCRRMQESLGHST, -0.026 ± 0.37; in that of MRGERVYSLRNNSHQ, -0.078 ± 0.33.
With MRIIQCRRLFKVCCCFSVCL, the amyloid nucleation score came out at 2.28 ± 0.14.
In the case of MRLSHAVTYRN it was -0.987 ± 1.7; in that of MRLSNYFTGRDWGF, -0.046 ± 0.43.
The substance MRLSQRWPNSKVCDLRHSRP showed an amyloid nucleation score of 0.632 ± 0.45.
Under MRNKKRPSRLVIGRLGNGFS stands -0.079 ± 0.84.
MRNYNLAWRHSSYCTIRSNA gave an amyloid nucleation score of 0.51 ± 0.84.
Substance MRPVSLYGFIFCCAFQGLWF showed an amyloid nucleation score of 4.99 ± 0.07.
Substance MRRPVKCYGVVTL returned an amyloid nucleation score of -0.299 ± 1.1.
MRRRIQLDLRRFDPSCMKDV: the amyloid nucleation score is -1.66 ± 1.1.
MRSMGLCTTGCQIDSRRVRW registered an amyloid nucleation score of 0.947 ± 0.61.
Regarding MRSWIVIMALKM, the amyloid nucleation score was -1.34 ± 0.85.
Consider MRYLNFLCHCVVVYVVMSAS, for which the amyloid nucleation score turned out to be 2.16 ± 0.57.
Substance MSASLWRGNKVDHWHSECYK registered an amyloid nucleation score of -0.661 ± 0.64.
The substance MSAVTGYECFRSLLV displayed an amyloid nucleation score of -0.055 ± 0.35.
In the case of MSDSG it was -0.576 ± 0.81.
The substance MSKIGLLRLDDYHRMGFCKQ yielded an amyloid nucleation score of -0.469 ± 0.38.
The substance MSLFNISSHSWLKFTLCVPG yielded an amyloid nucleation score of 1.17 ± 0.66.
Turning to MSMKQEEVDGSSW, the amyloid nucleation score is -0.553 ± 1.5.
As to MSNFLTELGNNSTHREDGER, the amyloid nucleation score was 0.501 ± 0.78.

Source of the values: the supplement of paper PMC12042874.
